Results published in publication PMC9133651, “Elucidation of physico-chemical principles of high-density lipoprotein–small RNA binding interactions”.

Experiments:
Experiment in all cases: MST
Details in all cases: MST: 100 nM AF647 oligo (90 C 2 min, cooled) mixed 1:1 with ligand in PBS, RT, 5 min; EMSA: 1 uM AF546 oligo, UV 254 nm 15 min on ice, 4-16% NativePAGE, 0.5x …
[1] = molecular target: native HDL (DGUC-HDL, apoA-I-containing lipoprotein particle) (Homo sapiens) (UniProt P02647)
[2] = molecular target: native HDL (DGUC-HDL, apoA-I-containing lipoprotein particle) (Homo sapiens) (UniProt P02647); remark: listed apart in the source
[3] = molecular target: native HDL (DGUC-HDL, apoA-I-containing lipoprotein particle) (Homo sapiens) (UniProt P02647); remark: listed apart in the source
[4] = molecular target: native HDL (DGUC-HDL, apoA-I-containing lipoprotein particle) (Homo sapiens) (UniProt P02647); remark: listed apart in the source

Sequence of native HDL (DGUC-HDL, apoA-I-containing lipoprotein particle) (Homo sapiens) (P02647 whole entry): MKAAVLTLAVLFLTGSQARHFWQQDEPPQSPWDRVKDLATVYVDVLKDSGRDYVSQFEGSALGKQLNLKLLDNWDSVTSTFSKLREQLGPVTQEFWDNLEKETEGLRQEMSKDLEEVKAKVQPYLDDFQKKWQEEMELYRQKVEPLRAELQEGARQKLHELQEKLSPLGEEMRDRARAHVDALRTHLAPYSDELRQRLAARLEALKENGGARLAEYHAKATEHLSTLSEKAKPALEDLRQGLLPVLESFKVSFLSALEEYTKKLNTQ

| Sequence | Kd [1] | Kd [2] | Kd [3] | Kd [4] |
| --- | --- | --- | --- | --- |
| GCAUUGGUGGUUCAGUGGUAGAAUUCUCGC / GCGAGAAUUCUACCACUGAACCACCAAUGC [dsRNA-tDR-GlyGCC-30] | 972 nM | – | – | – |
| GCAUUGGUGGUUCAG [tDR-GlyGCC-5'-tRH-5'tRF-15] | – | 115 nM | – | – |
| GCGCCGCUGGUGUAGUGGUAUCAUGCAAGA [tDR-GlyCCC-30] | – | – | 34000 nM | – |
| CUGCCACGCGGGAGGCCCGGGUUCGAUUCC [tDR-GlyGCC-3'-tRH-30] | – | 85 nM | – | – |
| GCAUUGGUGGUUCAGUGGUAGAAUUCUCGC [tDR-GlyGCC-30 (5'-tRH-30)] | 153 nM | 16 nM | 259 nM | 54 nM |
| CCGGCUAGCUCAGUCGGUAGAGCAUGAGAC [tDR-LysCTT-30] | – | – | 3800 nM | – |
| UGGUAGAAUUCUCGC [tDR-GlyGCC-5'-tRH-3'-tRF-15] | – | 124 nM | – | – |
